According to publication PMC11032371 (Cell Death Discovery, 2024):
Blank lines part the entries; values can stand above or below the binder they belong to.

Key:
[1] = target: T1, monoUb (UniProt P0CG48 1-76); assay: SPR; Biacore S200; TF-N4BP1 fragment amine-coupled to a CM5 chip, mono- and diUb flowed over at 30 μl/min; HBS-P+ (10 mM HEPES pH 7.4, 150 mM NaCl, 0.05% Tween 20), 25 °C; KD from plateau levels; settings: both partners purified
T1 construct: ubiquitin; 15N-labelled in some NMR titrations; also called ubiquitin

[2] = target: T2, M1-diUb (UniProt P0CG48 1-76; P0CG48 1-76); assay: as above; settings: both partners purified
T2 construct: ubiquitin, distal unit of M1-linked (linear) diUb; ubiquitin, proximal unit of M1-linked (linear) diUb; also called M1-linked diUb; linear diUb

[3] = target: the molecule itself; assay: SEC; analytical size exclusion, Superose 12 10/300; 50 mM HEPES pH 8.5, 150 mM NaCl, 1 mM DTT, 0.5% Triton X-100
[4] = target: T1, monoUb; assay: ITC; 293 K; 50 mM HEPES pH 7.4, 50 mM NaCl, 0.5 mM TCEP; cell 50–100 μM, syringe usually 10-fold; 20 injections of 2 μl; averages of at least two experiments; which partner was in the syringe not stated; settings: both partners purified
[5] = target: T2, M1-diUb; assay: as above; settings: both partners purified

B2: N4BP1 (613–893), from pCold-I, His-tagged (domain or fragment, mouse, UniProt Q6A037 613-893, looked up)
chain: ADLKHIVIDGSNVAITHGLKKFFSCRGIAIAVEYFWKLGNRNITVFVPQWRTRRDPNITEQHFLTQLQELGILSLTPARMVFGERIASHDDRFLLHLADKTGGIIVTNDNFREFVTESVSWREIITKRLLQYTFVGDIFMVPDDPLGRNGPRLEEFLRKEAFLRHMQPLLNALPSVGTFDPGFRSPSTQVANNSHQPPPRIQTSSSPWLPQQSHFTALATLPSMQQNPPLPAQRSSAETSELREALLKIFPDSEQKLKIDQILAAHPYMKDLNALSALVLD
notes: source: E. coli BL21, purified
- binding result [3]: binds

B4: N4BP1 (613-774), from pCold-I, His-tagged (domain or fragment, mouse, UniProt Q6A037 613-774, looked up)
chain: ADLKHIVIDGSNVAITHGLKKFFSCRGIAIAVEYFWKLGNRNITVFVPQWRTRRDPNITEQHFLTQLQELGILSLTPARMVFGERIASHDDRFLLHLADKTGGIIVTNDNFREFVTESVSWREIITKRLLQYTFVGDIFMVPDDPLGRNGPRLEEFLRKEAF
notes: N4BP1, mouse, RNase domain, residues 613-774; source: E. coli BL21, purified
- binding result [3]: binds

The next lines start with results.

- Kd [1]: 84.9 µM
- Kd [2]: 430 nM
B1: TF-N4BP1 (613–893) (domain or fragment, mouse, UniProt Q6A037 613-893, looked up)
chain: B2 chain
notes: also called dimeric N4BP1

- Kd [4]: 27.5 ± 5.6 µM
- dH [4]: -5.2 kcal/mol
- stoichiometry N [4]: 0.915
- dH [5]: -5.3 kcal/mol
- stoichiometry N [5]: 2.16
B3: N4BP1 (850–893) (domain or fragment, mouse, UniProt Q6A037 850-893, looked up)
chain: ETSELREALLKIFPDSEQKLKIDQILAAHPYMKDLNALSALVLD
notes: His-tag removed with 3C protease for ITC and NMR; 15N- or 15N/13C-labelled for NMR; also called isolated CUE domain; N4BP1 CUE domain; not shown: His-tag, N-terminal, cleaved
- binding result [3]: binds
